According to patent US20190262327A1 (AstraZeneca / MedImmune, published 2019):
Where a chain is given by its changes, count along the chain named.

T1: unlabelled murine Amyloid beta 1-40 peptide (murine, UniProt P12023 672-711)
T1 construct: domain: Amyloid beta 1-40 peptide
T1 peptide (looked up): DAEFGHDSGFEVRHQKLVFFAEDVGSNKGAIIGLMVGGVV

T2: unlabelled murine Amyloid beta 1-42 peptide (murine, UniProt P12023 672-713)
T2 construct: domain: Amyloid beta 1-42 peptide
T2 peptide (looked up): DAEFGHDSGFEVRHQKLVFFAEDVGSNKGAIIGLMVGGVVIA

B1: Abet0380 scFv (scFv, V domains shown, not shown: small tags and cut ends)
VH: EVQLLESGGGLVQPGGSLRLSCAASMGNFNYQTMWWVRQAPGRGLEWVSVIGKTNENIAYADSVKGRFTISRDNSKNTLYLQMNSLRAEDTAVYYCAREWMDHSRPYYYYGMDVWGQGTLVTVSS
VL: SYELTQPPSVSVSPGQTASITCSGHNLEDKFASWYQQKPGQSPVLVIYRDDKRPSGIPERFSASNSGHTATLTISGTQATDEADYYCSSQDTVTRVFGGGTKLTVL
notes: Purified scFv expressed in E. coli
B2: Abet0369 scFv (scFv, V domains shown, not shown: small tags and cut ends)
VH: EVQLLESGGGLVQPGGSLRLSCAASSFQISKNTMWWVRRAPGKGLEWVSVIGKDETRFNYADSVKGRFTISRDNSKNTLYLQMNSLRAEDTAVYYCAREWMDHSRPYYYYGMDVWGQGTLVTVSS
VL: B1 VL with E3G, H25R, L27I, E28G, K30S, F31W, A32V, S33A
notes: as for B1
B3: Abet0377 scFv (scFv, V domains shown, not shown: small tags and cut ends)
VH: B1 VH with M26G, G27F, Y31E, M34L, R43K, K53V, T54G, N55T, E56K, S63T
VL: B1 VL with L27T, D29H, F31W, A32I, S64T
notes: as for B1
B4: Abet0144-GL scFv (scFv, V domains shown, not shown: small tags and cut ends)
VH: EVQLLESGGGLVQPGGSLRLSCAASGFTFSVYTMWWVRQAPGKGLEWVSVIGSSGGTTVYADSVKGRFTISRDNSKNTLYLQMNSLRAEDTAVYYCAREWMDHSRPYYYYGMDVWGQGTLVTVSS
VL: B1 VL with T80M, S88Q, S89A, T92S, V93T
notes: Purified scFv expressed in E. coli; also called parent clone
B5: Abet0323b scFv (scFv, V domains shown, not shown: small tags and cut ends)
VH: EVQLLESGGGLVQPGGSLRLSCAASTSTFQEDTMWWVRQAPGKGLEWVSVIGPNPKNNAYADSVKGRFTISRDNSKNTLYLQMNSLRAEDTAVYYCAREWMDHSRPYYYYGMDVWGQGTLVTVSS
VL: B1 VL with I57V, T104I
notes: as for B1
B6: Abet0380-GL (germlined) IgG1-TM (antibody, V domains shown)
VH: B1 VH with R43K
VL: B1 VL with T80M
notes: also called Abet0380-GL IgG1-TM; Abet0380-GL IgG1TM

Key:
[1] = molecular target: T3, biotinylated synthetic human Amyloid beta 1-42 peptide (human, UniProt P05067 672-713, biotinylated (N-terminal biotin in Example 4)); assay: Surface Plasmon Resonance, purified scFv (group statement that sums up Table 5)
T3 construct: domain: Amyloid beta 1-42 peptide; Numbers 1-42 count on the Amyloid beta peptide, not on APP; also called biotinylated human Amyloid beta 1-42; N-terminal biotin Abeta 1-42

[2] = molecular target: T3, biotinylated synthetic human Amyloid …; assay: HTRF epitope competition; purified scFv titrated; competitor Abet0144-GL IgG1-TM
Experimental: (§1) Two thousand and twenty four scFv chosen at random from selection rounds 3 and 4 of the targeted mutagenesis approach described in section 1.2 were expressed in bacteria to produce unpurified periplasmic scFv.
(§2) One thousand six hundred and seventy two scFv, randomly selected from selection rounds 9 to 11, were screened in an epitope competition assay as described in section 1.3.
(§3) Where the assay was performed more than once, the absolute range of IC₅₀ values is provided.
Target sequence in this assay (P05067 672-713 limits assumed): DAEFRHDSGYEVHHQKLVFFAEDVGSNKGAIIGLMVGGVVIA

[3] = molecular target: T3, biotinylated synthetic human Amyloid …; assay: SPR (ProteOn); biotinylated peptide on streptavidin chip, scFv in solution; 1:1 Langmuir fit
Experimental: (§4) These experiments were performed essentially as described by Karlsson et al. (Karlsson et al., 1991).
(§5) The chip surface was regenerated between cycles by a single 60 second injection of 10 mM Glycine pH 2.0 to remove scFv bound to the peptide.
(§6) Each scFv at 100-200 nM was sequentially passed over the peptide surface for a sufficient amount of time to observe sensorgrams that could be fitted to an appropriate binding model with confidence. An irrelevant scFv blank was subtracted from the main dataset to reduce the impact of any buffer artefacts or non-specific binding effects. An appropriate binding model was then fitted to the data.

[4] = molecular target: T3, biotinylated synthetic human Amyloid …; assay: HTRF epitope competition; purified scFv titrated; competitor Abet0144-GL IgG1-TM; range of repeats
Experimental: as §1, §2, §3
Target sequence in this assay (P05067 672-713 limits assumed): as above

[5] = molecular target: T3, biotinylated synthetic human Amyloid …; assay: HTRF epitope competition: purified scFv titrated against the complex of biotinylated human Amyloid beta 1-42 and Abet0144-GL IgG1-TM [upper graph; the letter C stands below it]
Excerpt: as §1, §2

[6] = molecular target: T3, biotinylated synthetic human Amyloid …; assay: SPR (ProteOn); biotinylated peptide on streptavidin chip, scFv in solution
Experimental: as §4, §5, §6
Target sequence in this assay (P05067 672-713 limits assumed): as above

[7] = molecular target: T3, biotinylated synthetic human Amyloid …; assay: HTRF epitope competition: purified scFv titrated against the complex of biotinylated human Amyloid beta 1-42 and Abet0144-GL IgG1-TM
Excerpt: as §1, §2

[8] = molecular target: T4, synthetic human Amyloid beta 1-42 peptide (human, UniProt P05067 672-713); assay: SPR (BIAcore T-100); IgG captured on protein G, peptide 0.063-1024 nM in solution; 1:1 Langmuir fit
T4 construct: domain: Amyloid beta 1-42 peptide; also called Abeta 1-42
Experimental: The chip surface was regenerated between cycles by paired 40 second injections of 10 mM Glycine pH 2.0 to remove ligand and bound antibody. The test antibody was then reapplied for each peptide injection.
Blank reference flow-cell data were subtracted from each IgG dataset and a zero-concentration antibody-only buffer blank was double-reference subtracted from the main dataset. An appropriate binding model was then fitted simultaneously to the data from each analyte titration using the BIAevaluation software.

[9] = molecular target: T5, biotinylated human Amyloid beta 1-40 peptide (human, UniProt P05067 672-711, biotinylated); assay: Surface plasmon resonance (BIAcore), antibody captured on protein G, single cycle with five peptide injections
T5 construct: domain: Amyloid beta 1-40 peptide
Experimental: as §4
(§7) The interaction between each test IgG and each peptide was estimated using assays in which the antibody was non-covalently captured by a protein G surface that was itself amine linked to a proprietary CM5 chip. […] The chip surface was regenerated between cycles by paired 40 second injections of 10 mM Glycine pH 2.0 to remove ligand and bound antibody. The test antibody was then reapplied for each peptide injection cycle.
(§8) Blank reference flow-cell data were subtracted from each IgG dataset and a zero-concentration antibody-only buffer blank was double-reference subtracted from the main dataset.

[10] = molecular target: T1, unlabelled murine Amyloid beta 1-40 …; assay: as above
Experimental: as §4, §7, §8

[11] = molecular target: T2, unlabelled murine Amyloid beta 1-42 …; assay: Surface plasmon resonance (BIAcore), antibody captured on protein G, single cycle with five peptide injections (64 to 1024 nM by paragraph 390)
Experimental: as §4, §7, §8

[12] = molecular target: B6; assay: HTRF competition: unlabelled peptide titrated against the binding of N-terminal biotin Abeta 1-42 (1.5 nM) to Abet0380-GL IgG1-TM (0.5 nM)
Experimental: The assay was then incubated for a further 2 hrs at room temperature before reading on an Envision plate reader (PerkinElmer) using a standard homogeneous time resolved fluorescence (HTRF) read protocol.
The final assay volume was 20 μl and all reagents were prepared in an assay buffer comprising MOPS pH7.4 (50 mM), potassium fluoride (0.4M), tween 20 (0.1%) & fatty acid free BSA (0.1%). The assay was performed in low volume 384 well black assay plates (Costar 3676).

Row | Binder | IC50 [2] | IC50 [4] | Kd [6] | koff [6] | kon [6] | other results
1 | B1 | 0.43 nM | 0.38 to 0.47 nM | – | – | – | Kd [1]: < 0.25 nM; Kd [3]: 0.148 nM; koff [3]: 2.85e-05 s⁻¹; kon [3]: 193000 M⁻¹ s⁻¹; IC50 (read off the curve) [5]: ~0.5 nM
2 | B2 | 0.36 nM | 0.3 to 0.41 nM | 0.133 nM | 4.34e-05 s⁻¹ | 327000 M⁻¹ s⁻¹ | IC50 (read off the curve) [7]: ~0.4 nM
3 | B3 | 0.32 nM | 0.29 to 0.35 nM | 0.154 nM | 3.02e-05 s⁻¹ | 196000 M⁻¹ s⁻¹ | IC50 (read off the curve) [7]: ~0.3 nM
4 | B4 | 14 nM | 8.1 to 18 nM | 58.7 nM | 0.0066 s⁻¹ | 116000 M⁻¹ s⁻¹ | –
5 | B5 | 0.67 nM | 0.57 to 0.76 nM | 0.894 nM | 0.000188 s⁻¹ | 210000 M⁻¹ s⁻¹ | –
6 | B6 | – | – | – | – | – | Kd [8]: 0.322 nM; koff [8]: 0.000307 s⁻¹; kon [8]: 952000 M⁻¹ s⁻¹; binding result [9]: no binding; binding result [10]: no binding; binding result [11]: binds
7 | DAEFRHDSGYEVHHQK (peptide, UniProt P05067 672-687, looked up, domain: Abeta 1-16) [human Abeta 1-16 peptide] | – | – | – | – | – | binding result [12]: no binding (tested: log -5 M (10 uM))
8 | VHHQKLVFFAEDVGSNK (peptide, UniProt P05067 683-699, looked up, domain: Abeta 12-28) [human Abeta 12-28 peptide] | – | – | – | – | – | binding result [12]: no binding (tested: log -5 M (10 uM))
9 | LVFFAEDVGSNKGAIIGLMVGGVVIA (peptide, UniProt P05067 688-713, looked up, domain: Abeta 17-42) [human Abeta 17-42 peptide] | – | – | – | – | – | IC50 (read off the curve) [12]: ~5 nM
